Test results published in article PMC5773378 (Immunity, 2017).
Where two headings read alike, the source gives them in different places.

T1: human IL-23 receptor ectodomain (IL-23R, full ECD, residues 1-317) (human, UniProt Q5VWK5-1 24-317)
T1 sequence (looked up): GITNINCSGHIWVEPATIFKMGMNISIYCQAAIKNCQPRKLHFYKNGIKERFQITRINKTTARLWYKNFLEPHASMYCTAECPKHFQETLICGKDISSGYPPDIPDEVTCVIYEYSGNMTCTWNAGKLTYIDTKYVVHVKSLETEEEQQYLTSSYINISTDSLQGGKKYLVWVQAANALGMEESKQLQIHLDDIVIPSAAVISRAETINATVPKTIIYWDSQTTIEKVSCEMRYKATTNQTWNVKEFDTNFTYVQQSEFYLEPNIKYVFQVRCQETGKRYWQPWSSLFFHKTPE

B1: Nanobody 22E11 (single domain VHH camelid antibody against human IL-23) (VHH)
VHH: EVQLVESGGGLVQAGGSLRLSCAASGRTFSWSAVGWFRQAPGKEREFVAAIRWSGGSPYYADSVKDRFTISRDNAKNTVYLQMNSLRPEDTAVYLCGETSLFPTSRGSHYDTWGQGTQVTVSS
B2: Nanobody 124C4 (single domain VHH camelid antibody against human IL-23) (VHH)
VHH: EVQLVESGGGLVQPGGSLRLSCAASGFTLDDYAIAWFRQAPGKEREGVSGIDSGDGSAYYADSVKGRFTISSDNAKNTVYLQMNSLRPEDTAVYYCARVRTGWGLNAPDYAMDYWGKGTLVTVSS
B3: Fab fragment of ustekinumab (Fab, V domains shown)
VH: EVQLVQSGAEVKKPGESLKISCKGSGYSFTTYWLGWVRQMPGKGLDWIGIMSPVDSDIRYSPSFQGQVTMSVDKSITTAYLQWNSLKASDTAMYYCARRRPGQGYFDFWGQGTLVTVSS
VL: DIQMTQSPSSLSASVGDRVTITCRASQGISSWLAWYQQKPEKAPKSLIYAASSLQSGVPSRFSGSGSGTDFTLTISSLQPEDFATYYCQQYNIYPYTFGQGTKLEIK
B4: human interleukin-23 (IL-23), heterodimer of IL-23p19 and IL-12p40 (complex)
chain 1: RAVPGGSSPAWTQCQQLSQKLCTLAWSAHPLVGHMDLREEGDEETTNDVPHIQCGDGCDPQGLRDNSQFCLQRIHQGLIFYEKLLGSDIFTGEPSLLPDSPVGQLHASLLGLSQLLQPEGHHWETQQIPSLSPSQPWQRLLLRFKILRSLQAFVAVAARVFAHGAATLSP
chain 2: IWELKKDVYVVELDWYPDAPGEMVVLTCDTPEEDGITWTLDQSSEVLGSGKTLTIQVKEFGDAGQYTCHKGGEVLSHSLLLLHKKEDGIWSTDILKDQKEPKNKTFLRCEAKNYSGRFTCWWLTTISTDLTFSVKSSRGSSDPQGVTCGAATLSAERVRGDNKEYEYSVECQEDSACPAAEESLPIEVMVDAVHKLKYENYTSSFFIRDIIKPDPPKNLQLKPLKNSRQVEVSWEYPDTWSTPHSYFSLTFCVQVQGKSKREKKDRVFTDKTSATVICRKNASISVRAQDRYYSSSWSEWASVPCS
B5: human IL-12p40, the p40 subunit of IL-23 (natural protein, UniProt P29460 23-328, looked up)
chain: B4 chain 2
B6: human IL-23p19, the helical subunit of IL-23 (natural protein, UniProt Q9NPF7 20-189, looked up)
chain: B4 chain 1
B7: preformed human IL-23:IL-23R binary complex (complex)
chain 1: B4 chain 1
chain 2: B4 chain 2
chain 3: T1 sequence (looked up)
B8: Fab fragment of briakinumab (ABT-874) (Fab, V domains shown)
VH: QVQLVESGGGVVQPGRSLRLSCAASGFTFSSYGMHWVRQAPGKGLEWVAFIRYDGSNKYYADSVKGRFTISRDNSKNTLYLQMNSLRAEDTAVYYCKTHGSHDNWGQGTMVTVSS
VL: QSVLTQPPSVSGAPGQRVTISCSGSRSNIGSNTVKWYQQLPGTAPKLLIYYNDQRPSGVPDRFSGSKSGTSASLAITGLQAEDEADYYCQSYDRYTHPALLFGTGTKVTVL
B9: Nanobody 37D5 (single domain VHH camelid antibody against human IL-23) (VHH)
VHH: EVQLVESGGGLVQPGGSLRLSCAASGFTLDYLAIGWFRQAPGKEREGVSCVSSSGQYTYYADSVKGRFTISRDNAESTVYLQMNSLKPEDTAVYYCATDPECYRVRGYYNGEYDYWGQGTQVTVSS

Key:
[1] = molecular target: T2, human IL-12p40, the p40 subunit of IL-23 (human, UniProt P29460); experiment: crystal structure
[2] = molecular target: T3, human interleukin-23 (IL-23), heterodimer of IL-23p19 and IL-12p40 (human, UniProt Q9NPF7;P29460); experiment: crystal structure
[3] = molecular target: T3, human interleukin-23 (IL-23), …; experiment: cross-linking
[4] = molecular target: T1, human IL-23 receptor ectodomain …; experiment: SEC-MALLS
[5] = molecular target: T4, human IL-12 receptor subunit beta-1 ectodomain (IL-12Rβ1, full ECD) (human, UniProt P42701-1 24-544); experiment: ITC
[6] = molecular target: T4, human IL-12 receptor subunit beta-1 …; experiment: cross-linking
[7] = molecular target: T1, human IL-23 receptor ectodomain …; experiment: crystal structure
[8] = molecular target: B5; experiment: crystal structure
[9] = molecular target: T2, human IL-12p40, the p40 subunit of IL-23; experiment: crystal structure; remark: listed apart in the source
[10] = molecular target: T3, human interleukin-23 (IL-23), …; experiment: crystal structure; remark: listed apart in the source

## B1
[1]
  binding result: binds
[2]
  binding result: binds

## B2
[3]
  binding result: binds

## B3
[3]
  binding result: binds

## B4
[4]
  stoichiometry N: 1
[5]
  Kd: 2 µM

## B5
[6]
  binding result: binds

## B6
[7]
  binding result: binds
[8]
  binding result: binds

## B7
[5]
  Kd: 0.025 µM

## B8
[9]
  binding result: binds
[10]
  binding result: binds

## B9
[3]
  binding result: binds
